According to paper doi:10.1101/2025.04.03.647111:

Experiments:
[1] = molecular target: HtpG from Synechococcus elongatus PCC 7942 (Synechococcus elongatus PCC 7942); assay: SEC
[2] = molecular target: HtpG from Synechococcus elongatus PCC 7942 (Synechococcus elongatus PCC 7942); assay: AUC

“HtpG from Synechococcus elongatus PCC 7942 (natural protein)” showed a stoichiometry N [1] of 2 and a stoichiometry N [2] of 2.
